Test results as given in patent US20190194284A1.
Where two headings read alike, the source gives them in different places.

What was measured:
Assay in all cases: cell-based or functional assay
[1] = target: T1, type I interferon-α/β receptor (IFNAR), composed of the IFNAR1 and IFNAR2 subunits (human) (UniProt P17181)
T1 sequence (looked up) 1: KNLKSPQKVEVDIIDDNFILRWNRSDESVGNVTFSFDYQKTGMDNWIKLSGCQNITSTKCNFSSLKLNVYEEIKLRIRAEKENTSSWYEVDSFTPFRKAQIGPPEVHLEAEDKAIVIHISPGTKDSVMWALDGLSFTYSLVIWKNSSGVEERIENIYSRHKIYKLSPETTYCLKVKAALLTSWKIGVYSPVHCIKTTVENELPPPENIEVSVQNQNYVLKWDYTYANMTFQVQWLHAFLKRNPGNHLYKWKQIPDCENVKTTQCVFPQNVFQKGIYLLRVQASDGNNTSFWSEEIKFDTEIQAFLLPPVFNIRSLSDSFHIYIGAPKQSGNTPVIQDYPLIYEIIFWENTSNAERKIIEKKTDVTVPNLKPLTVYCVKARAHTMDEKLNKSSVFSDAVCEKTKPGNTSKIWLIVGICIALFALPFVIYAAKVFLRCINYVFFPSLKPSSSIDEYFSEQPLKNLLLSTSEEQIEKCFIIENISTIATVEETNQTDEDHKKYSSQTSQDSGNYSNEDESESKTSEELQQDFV
T1 sequence (looked up) 2: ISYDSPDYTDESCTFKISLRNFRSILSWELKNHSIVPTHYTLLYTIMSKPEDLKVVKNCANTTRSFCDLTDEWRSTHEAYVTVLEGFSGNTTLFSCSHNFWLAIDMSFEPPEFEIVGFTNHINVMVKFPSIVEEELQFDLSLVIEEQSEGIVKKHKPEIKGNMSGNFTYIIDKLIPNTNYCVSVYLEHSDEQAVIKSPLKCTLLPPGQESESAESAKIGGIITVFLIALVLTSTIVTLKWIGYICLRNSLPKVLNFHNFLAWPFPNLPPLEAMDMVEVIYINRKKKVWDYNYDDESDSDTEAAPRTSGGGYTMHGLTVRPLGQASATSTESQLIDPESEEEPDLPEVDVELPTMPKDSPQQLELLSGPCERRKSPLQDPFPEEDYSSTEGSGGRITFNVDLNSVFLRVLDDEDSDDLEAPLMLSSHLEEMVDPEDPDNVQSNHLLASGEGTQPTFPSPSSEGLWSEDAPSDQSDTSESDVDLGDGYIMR

[2] = target: T2, human CD20 (human) (UniProt P11836)
T2 sequence (looked up): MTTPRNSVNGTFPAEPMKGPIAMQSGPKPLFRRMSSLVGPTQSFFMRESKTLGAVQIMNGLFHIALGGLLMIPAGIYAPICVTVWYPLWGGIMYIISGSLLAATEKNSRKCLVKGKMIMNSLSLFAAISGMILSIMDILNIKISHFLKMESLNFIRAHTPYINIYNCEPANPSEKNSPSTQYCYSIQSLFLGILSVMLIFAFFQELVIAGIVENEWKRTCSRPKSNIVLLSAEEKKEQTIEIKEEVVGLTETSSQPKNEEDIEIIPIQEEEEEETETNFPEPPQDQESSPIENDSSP

[3] = target: T1, type I interferon-α/β receptor (IFNAR), composed of the IFNAR1 and IFNAR2 subunits (human); remark: listed apart in the source

wild type human IFN-β (from UniProt P01574 22-187) (ligand)
EC50 for pSTAT1 in CD19 negative cells of human PBMCs [1]: 0.592 ng/ml
EC50 for pSTAT1 in CD19 positive cells of human PBMCs [1]: 0.422 ng/ml

B1: huCD20 VHH-20*GGS-huIFNβ-6*His, wild type hIFNβ coupled to anti-huCD20 VHH (P-126) (protein)
chain: QVQLQESGGGLAQAGGSLRLSCAASGRTFSMGWFRQAPGKEREFVAAITYSGGSPYYASSVRGRFTISRDNAKNTVYLQMNSLKPEDTAVYYCAANPTYGSDWNAENWGQGTQVTVSSGGSGGSGGSGGSGGSGGSGGSGGSGGSGGSGGSGGSGGSGGSGGSGGSGGSGGSGGSGGSMSYNLLGFLQRSSNFQCQKLLWQLNGRLEYCLKDRMNFDIPEEIKQLQQFQKEDAALTIYEMLQNIFAIFRQDSSSTGWNETIVENLLANVYHQINHLKTVLEEKLEKEDFTRGKLMSSLHLKRYYGRILHYLKAKEYSHCAWTIVRVEILRNFYFINRLTGYLRNHHHHHH
EC50 for pSTAT1 in CD19 positive (CD20 positive B) cells of human PBMCs [2]: 97 ng/ml
Targeting effect (EC50 on CD19 negative cells divided by that on CD19 positive cells) [2]: 7.1 fold
targeting effect, anti-proliferative activity on Daudi (CD20 positive) versus Wish (CD20 negative) cells [2]: 24.3 fold
EC50 for pSTAT1 in CD19 negative cells of human PBMCs [3]: 687 ng/ml
